Publication PMC4116150

Columns and labels:
Assay in all cases: purified protein
[1] = test system: CC(C)(COP(=O)(O)OP(=O)(O)OC[C@H]1O[C@@H](n2cnc3c(N)ncnc32)[C@H](O)[C@@H]1OP(=O)(O)O)[C@@H](O)C(=O)NCCC(=O)NCCSC(=O)c1cc(O)c2ccccc2c1O; settings: 50 mM K+HEPES pH 7.5, 1 mM DTNB, 25 °C
[2] = test system: CC(C)(COP(=O)(O)OP(=O)(O)OC[C@H]1O[C@@H](n2cnc3c(N)ncnc32)[C@H](O)[C@@H]1OP(=O)(O)O)[C@@H](O)C(=O)NCCC(=O)NCCSC(=O)c1ccccc1; settings: 50 mM K+HEPES pH 7.5, 1 mM DTNB, 25 °C
[3] = test system: CCCCCCCCCCCC(=O)SCCNC(=O)CCNC(=O)[C@H](O)C(C)(C)COP(=O)(O)OP(=O)(O)OC[C@H]1O[C@@H](n2cnc3c(N)ncnc32)[C@H](O)[C@@H]1OP(=O)(O)O; settings: 50 mM K+HEPES pH 7.5, 1 mM DTNB, 25 °C
purified protein [4] = substrate: CC(C)(COP(=O)(O)OP(=O)(O)OC[C@H]1O[C@@H](n2cnc3c(N)ncnc32)[C@H](O)[C@@H]1OP(=O)(O)O)[C@@H](O)C(=O)NCCC(=O)NCCSC(=O)/C=C/c1ccc(O)cc1; settings: 50 mM K+HEPES pH 7.5, 1 mM DTNB, 25 °C
purified protein [5] = substrate: CC(C)(COP(=O)(O)OP(=O)(O)OC[C@H]1O[C@@H](n2cnc3c(N)ncnc32)[C@H](O)[C@@H]1OP(=O)(O)O)[C@@H](O)C(=O)NCCC(=O)NCCSC(=O)c1cc(O)c2ccccc2c1O; settings: 50 mM K+HEPES pH 7.5, 1 mM DTNB, 25 °C; remark: listed apart in the source
purified protein [6] = substrate: CCCCCCCC/C=C\CCCCCCCC(=O)SCCNC(=O)CCNC(=O)[C@H](O)C(C)(C)COP(=O)(O)OP(=O)(O)OC[C@H]1O[C@@H](n2cnc3c(N)ncnc32)[C@H](O)[C@@H]1OP(=O)(O)O; settings: 50 mM K+HEPES pH 7.5, 1 mM DTNB, 25 °C
purified protein [7] = substrate: CCCCCCCCCCCCCC(=O)SCCNC(=O)CCNC(=O)[C@H](O)C(C)(C)COP(=O)(O)OP(=O)(O)OC[C@H]1O[C@@H](n2cnc3c(N)ncnc32)[C@H](O)[C@@H]1OP(=O)(O)O; settings: 50 mM K+HEPES pH 7.5, 1 mM DTNB, 25 °C
purified protein [8] = substrate: CC(C(=O)O)C(=O)SCCNC(=O)CCNC(=O)[C@H](O)C(C)(C)COP(=O)(O)OP(=O)(O)OC[C@H]1O[C@@H](n2cnc3c(N)ncnc32)[C@H](O)[C@@H]1OP(=O)(O)O; settings: 50 mM K+HEPES pH 7.5, 1 mM DTNB, 25 °C
purified protein [9] = substrate: CC(C)(COP(=O)(O)OP(=O)(O)OC[C@H]1O[C@@H](n2cnc3c(N)ncnc32)[C@H](O)[C@@H]1OP(=O)(O)O)[C@@H](O)C(=O)NCCC(=O)NCCSC(=O)c1ccc(O)cc1; settings: 50 mM K+HEPES pH 7.5, 25 °C
purified protein [10] = substrate: CC(C)(COP(=O)(O)OP(=O)(O)OC[C@H]1O[C@@H](n2cnc3c(N)ncnc32)[C@H](O)[C@@H]1OP(=O)(O)O)[C@@H](O)C(=O)NCCC(=O)NCCSC(=O)c1ccccc1; settings: 50 mM K+HEPES pH 7.5, 1 mM DTNB, 25 °C; remark: listed apart in the source
purified protein [11] = substrate: CC(C)=CC(=O)SCCNC(=O)CCNC(=O)[C@H](O)C(C)(C)COP(=O)(O)OP(=O)(O)OC[C@H]1O[C@@H](n2cnc3c(N)ncnc32)[C@H](O)[C@@H]1OP(=O)(O)O; settings: 50 mM K+HEPES pH 7.5, 1 mM DTNB, 25 °C
purified protein [12] = substrate: CCC(=O)SCCNC(=O)CCNC(=O)[C@H](O)C(C)(C)COP(=O)(O)OP(=O)(O)OC[C@H]1O[C@@H](n2cnc3c(N)ncnc32)[C@H](O)[C@@H]1OP(=O)(O)O; settings: 50 mM K+HEPES pH 7.5, 1 mM DTNB, 25 °C
purified protein [13] = substrate: CCCCCC(=O)SCCNC(=O)CCNC(=O)[C@H](O)C(C)(C)COP(=O)(O)OP(=O)(O)OC[C@H]1O[C@@H](n2cnc3c(N)ncnc32)[C@H](O)[C@@H]1OP(=O)(O)O; settings: 50 mM K+HEPES pH 7.5, 1 mM DTNB, 25 °C
purified protein [14] = substrate: CCCCCCCCCCCC(=O)SCCNC(=O)CCNC(=O)[C@H](O)C(C)(C)COP(=O)(O)OP(=O)(O)OC[C@H]1O[C@@H](n2cnc3c(N)ncnc32)[C@H](O)[C@@H]1OP(=O)(O)O; settings: 50 mM K+HEPES pH 7.5, 1 mM DTNB, 25 °C; remark: listed apart in the source
purified protein [15] = substrate: CCCCCCCCCCCCCCCC(=O)SCCNC(=O)CCNC(=O)[C@H](O)C(C)(C)COP(=O)(O)OP(=O)(O)OC[C@H]1O[C@@H](n2cnc3c(N)ncnc32)[C@H](O)[C@@H]1OP(=O)(O)O; settings: 50 mM K+HEPES pH 7.5, 1 mM DTNB, 25 °C
purified protein [16] = substrate: CCCCCCCCCCCC(=O)SCCNC(=O)CCNC(=O)[C@H](O)C(C)(C)COP(=O)(O)OP(=O)(O)OC[C@H]1O[C@@H](n2cnc3c(N)ncnc32)[C@H](O)[C@@H]1OP(=O)(O)O; type: biochemical, Escherichia coli; settings: 50 mM K+HEPES pH 7.5, 1 mM DTNB, 25 °C

Molecule: YbdB (Escherichia coli K-12; M68V)
- Km [1]: 5.9 ± 0.6 µM
- kcat [1]: 0.16 ± 0.02 s⁻¹
- kcat/Km [1]: 27000 M⁻¹ s⁻¹
- Km [2]: 24 ± 2 µM
- kcat [2]: 1.8 ± 0.1 s⁻¹
- kcat/Km [2]: 75000 M⁻¹ s⁻¹
- Km [3]: 10.4 ± 0.3 µM
- kcat [3]: 0.046 ± 0.004 s⁻¹
- kcat/Km [3]: 4500 M⁻¹ s⁻¹

B1: YbdB (Escherichia coli K-12) (protein)
chain: MIWKRHLTLDELNATSDNTMVAHLGIVYTRLGDDVLEAEMPVDTRTHQPFGLLHGGASAALAETLGSMAGFMMTRDGQCVVGTELNATHHRPVSEGKVRGVCQPLHLGRQNQSWEIVVFDEQGRRCCTCRLGTAVLG
- Km (purified protein [4]): 10 ± 1 µM
- kcat (purified protein [4]): 0.82 ± 0.02 s⁻¹
- kcat/Km (purified protein [4]): 82000 M⁻¹ s⁻¹
- Km (purified protein [5]): 17 ± 1 µM
- kcat (purified protein [5]): 0.0093 ± 0.0002 s⁻¹
- kcat/Km (purified protein [5]): 550 M⁻¹ s⁻¹
- Km (purified protein [6]): 13 ± 2 µM
- kcat (purified protein [6]): 0.03 ± 0.002 s⁻¹
- kcat/Km (purified protein [6]): 2300 M⁻¹ s⁻¹
- Km (purified protein [7]): 11 ± 1 µM
- kcat (purified protein [7]): 0.078 ± 0.003 s⁻¹
- kcat/Km (purified protein [7]): 7100 M⁻¹ s⁻¹

B2: YdiI (Escherichia coli K-12) (protein)
chain: MIWKRKITLEALNAMGEGNMVGFLDIRFEHIGDDTLEATMPVDSRTKQPFGLLHGGASVVLAESIGSVAGYLCTEGEQKVVGLEINANHVRSAREGRVRGVCKPLHLGSRHQVWQIEIFDEKGRLCCSSRLTTAIL
- Km (purified protein [8]): 115 ± 7 µM
- kcat (purified protein [8]): 0.67 ± 0.03 s⁻¹
- kcat/Km (purified protein [8]): 5800 M⁻¹ s⁻¹
- Km (purified protein [4]): 30 ± 2 µM
- kcat (purified protein [4]): 8.4 ± 0.2 s⁻¹
- kcat/Km (purified protein [4]): 280000 M⁻¹ s⁻¹
- Km (purified protein [5]): 8 ± 1 µM
- kcat (purified protein [5]): 1.6 ± 0.1 s⁻¹
- kcat/Km (purified protein [5]): 200000 M⁻¹ s⁻¹
- Km (purified protein [9]): 9 ± 1 µM
- kcat (purified protein [9]): 5.2 ± 0.2 s⁻¹
- kcat/Km (purified protein [9]): 580000 M⁻¹ s⁻¹
- Km (purified protein [10]): 25 ± 3 µM
- kcat (purified protein [10]): 17.7 ± 0.7 s⁻¹
- kcat/Km (purified protein [10]): 710000 M⁻¹ s⁻¹
- Km (purified protein [11]): 69.4 ± 0.4 µM
- kcat (purified protein [11]): 0.5 ± 0.02 s⁻¹
- kcat/Km (purified protein [11]): 7300 M⁻¹ s⁻¹
- Km (purified protein [12]): 120 ± 10 µM
- kcat (purified protein [12]): 0.21 ± 0.01 s⁻¹
- kcat/Km (purified protein [12]): 1700 M⁻¹ s⁻¹
- Km (purified protein [13]): 21 ± 1 µM
- kcat (purified protein [13]): 0.3 ± 0.01 s⁻¹
- kcat/Km (purified protein [13]): 14000 M⁻¹ s⁻¹
- Km (purified protein [6]): 1.3 ± 0.1 µM
- kcat (purified protein [6]): 0.12 ± 0.01 s⁻¹
- kcat/Km (purified protein [6]): 92000 M⁻¹ s⁻¹
- Km (purified protein [14]): 2.2 ± 0.1 µM
- kcat (purified protein [14]): 0.74 ± 0.01 s⁻¹
- kcat/Km (purified protein [14]): 330000 M⁻¹ s⁻¹
- Km (purified protein [7]): 1.5 ± 0.2 µM
- kcat (purified protein [7]): 0.62 ± 0.01 s⁻¹
- kcat/Km (purified protein [7]): 410000 M⁻¹ s⁻¹
- Km (purified protein [15]): 1.9 ± 0.1 µM
- kcat (purified protein [15]): 0.58 ± 0.01 s⁻¹
- kcat/Km (purified protein [15]): 300000 M⁻¹ s⁻¹

B3: YdiI (Escherichia coli K-12; V68M) (protein)
chain: MIWKRKITLEALNAMGEGNMVGFLDIRFEHIGDDTLEATMPVDSRTKQPFGLLHGGASVVLAESIGSMAGYLCTEGEQKVVGLEINANHVRSAREGRVRGVCKPLHLGSRHQVWQIEIFDEKGRLCCSSRLTTAIL
- Km (purified protein [16]): 28 ± 2 µM
- kcat (purified protein [16]): 0.77 ± 0.03 s⁻¹
- kcat/Km (purified protein [16]): 28000 M⁻¹ s⁻¹
